Experimental data as given in PMC11128299 (Biophysics and Physicobiology, 2023).
Residue numbers refer to the chain shown, from its start. Numbers in names are those of the source. Read-outs that look alike come from different tables or passages of the source.

B1: KaiC-CV (KaiC with S431C and T432V substitutions) (enzyme)
chain: MTSAEMTSPNNNSEHQAIAKMRTMIEGFDDISHGGLPIGRSTLVSGTSGTGKTLFSIQFLYNGIIEFDEPGVFVTFEETPQDIIKNARSFGWDLAKLVDEGKLFILDASPDPEGQEVVGGFDLSALIERINYAIQKYRARRVSIDSVTSVFQQYDASSVVRRELFRLVARLKQIGATTVMTTERIEEYGPIARYGVEEFVSDNVVILRNVLEGERRRRTLEILKLRGTSHMKGEYPFTITDHGINIFPLGAMRLTQRSSNVRVSSGVVRLDEMCGGGFFKDSIILATGATGTGKTLLVSRFVENACANKERAILFAYEESRAQLLRNAYSWGMDFEEMERQNLLKIVCAYPESAGLEDHLQIIKSEINDFKPARIAIDSLSALARGVSNNAFRQFVIGVTGYAKQEEITGLFTNTSDQFMGAHSITDSHICVITDTIILLQYVEIRGEMSRAINVFKMRGSWHDKAIREFMISDKGPDIKDSFRNFERIISGSPTRITVDEKSELSRIVRGVQEKGPES
B2: KaiC-TV (KaiC with threonine at position 431 and valine at position 432) (enzyme)
chain: B1 chain with C431T

Key:
crystal structure [1] = molecular target: the molecule itself; assay: crystal structure
crystal structure [2] = molecular target: the molecule itself; assay: crystal structure; remark: listed apart in the source

Protein | stoichiometry N (crystal structure [1]) | stoichiometry N (crystal structure [2])
B1 | 6 | –
B2 | – | 6
